Consider one molecule from PMC11196578.

This data set deals with MPXV E5_∆N (Mpox virus, UniProt A0A7H0DN89 323-785). As to the kind of experiment: cryo-EM (2.67 A). The settings on record: protein: recombinant; tags: SUMO fusion; protease-treated (ULP or TEV); chain copies: 6.
MPXV E5_∆N, sequence (A0A7H0DN89 323-785): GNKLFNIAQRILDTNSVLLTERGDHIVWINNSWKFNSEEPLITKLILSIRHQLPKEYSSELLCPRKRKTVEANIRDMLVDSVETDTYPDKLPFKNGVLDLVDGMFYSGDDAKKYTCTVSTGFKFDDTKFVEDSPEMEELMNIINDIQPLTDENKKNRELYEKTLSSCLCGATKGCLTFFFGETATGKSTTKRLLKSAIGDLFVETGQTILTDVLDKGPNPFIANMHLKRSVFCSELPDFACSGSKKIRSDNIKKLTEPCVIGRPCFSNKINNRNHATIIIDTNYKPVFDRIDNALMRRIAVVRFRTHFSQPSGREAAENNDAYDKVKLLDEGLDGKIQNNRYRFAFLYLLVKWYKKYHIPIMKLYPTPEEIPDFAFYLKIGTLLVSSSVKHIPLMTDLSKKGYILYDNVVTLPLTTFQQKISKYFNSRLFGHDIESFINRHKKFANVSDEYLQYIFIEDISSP

B1: Forked DNA (mixed)
DNA 1: AACGAGTCAAGCGCATCCCGTTTTTTTTTTTTTTT
DNA 2: TTTTTTTTTTTTTTTCGGGATGCGCTTGACTCGTT
On to B1, for which the binding result is given as “binds”.
